Biological target: T1, VEGFR2-Fc (Homo sapiens, UniProt P35968)
T1 construct: purchased R&D Systems
Test: ELISA binding of R2S12 and R2S12-AF scFv to VEGFR2-Fc (affinity maturation)
Procedure: (A) Affinity maturation for R2S12. […] Subsequently, the beads were washed four times with PBS containing 1% TWEEN™ 20. After four rounds of biopanning, the recovery rate of the phages was increased by 929-fold over that of the first round. (B) Comparison of the binding activity of the indicated concentrations of R2S12 and R2S12-AF scFv to VEGFR2-Fc protein, as assayed by ELISA. Error bar, SE.
Affinity maturation was performed as previously described. […] This synthetic library was used to perform biopanning for VEGFR2-Fc-immobilized DYNABEADS®. After four to five rounds of stringent in vitro biopanning, positive clones were screened and identified by ELISA.

T1 sequence (P35968 with tags, fused parts or gaps limits assumed): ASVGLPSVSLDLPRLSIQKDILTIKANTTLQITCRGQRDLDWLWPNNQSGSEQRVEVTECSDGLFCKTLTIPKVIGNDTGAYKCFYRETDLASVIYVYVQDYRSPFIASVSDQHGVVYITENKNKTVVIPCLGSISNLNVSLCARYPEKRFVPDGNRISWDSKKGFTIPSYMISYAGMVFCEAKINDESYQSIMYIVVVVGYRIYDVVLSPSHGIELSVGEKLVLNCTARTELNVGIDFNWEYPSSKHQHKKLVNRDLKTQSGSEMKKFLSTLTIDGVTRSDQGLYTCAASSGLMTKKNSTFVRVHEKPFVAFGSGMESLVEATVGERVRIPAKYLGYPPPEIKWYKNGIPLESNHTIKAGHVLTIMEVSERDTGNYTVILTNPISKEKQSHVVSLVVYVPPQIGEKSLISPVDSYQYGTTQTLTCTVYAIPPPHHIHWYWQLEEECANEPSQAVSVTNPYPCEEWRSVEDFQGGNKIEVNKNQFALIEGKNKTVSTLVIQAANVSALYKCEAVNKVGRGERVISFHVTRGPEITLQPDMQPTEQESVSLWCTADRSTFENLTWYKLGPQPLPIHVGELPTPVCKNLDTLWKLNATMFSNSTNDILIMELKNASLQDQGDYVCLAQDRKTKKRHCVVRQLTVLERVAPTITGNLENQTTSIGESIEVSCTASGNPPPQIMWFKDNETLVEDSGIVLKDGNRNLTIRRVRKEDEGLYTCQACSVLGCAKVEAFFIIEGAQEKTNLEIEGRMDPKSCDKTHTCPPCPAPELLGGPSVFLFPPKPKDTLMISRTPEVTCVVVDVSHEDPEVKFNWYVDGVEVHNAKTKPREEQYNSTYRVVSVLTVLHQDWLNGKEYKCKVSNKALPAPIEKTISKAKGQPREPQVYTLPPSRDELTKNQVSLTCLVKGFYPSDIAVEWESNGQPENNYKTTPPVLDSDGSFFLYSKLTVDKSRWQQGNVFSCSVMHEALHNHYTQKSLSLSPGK

binding activity to VEGFR2-Fc compared with parental clone R2S12: superior binding activity
B1: R2S12AF: affinity-matured scFv clone of R2S12; VH SEQ ID NO: 76, VL SEQ ID NO: 78, VL-CDR3 QQLDDIPIT (antibody, V domains shown)
VH: QVNLRESGGGLVKPGGSLRLSCAASGFTFGSYTMNWVRQAPGKGLEWVASITSGSSYIFYTDSVKGRFTISRDNSRSSLFLQMNSLRAEDTAIYYCARGSASAFDIWGQGTMVTVSS
VL: DIQMTQSPSSLSASVGDRVTITCKASDDIINYLNWYQQKPGEAPKLLIYDASILETGVPSRFSGSGSGTDFTFTISSLQPEDIATYYCQQLDDIPITFGGGTKLEIK
modifications: scFv linker; VH region of R2S12 or R2S12-AF; VL region of R2S12AF

Source: patent US10196447B2, “Anti-vascular endothelial growth factor receptor 2 (VEGFR2) antibody and methods of use thereof for detecting VEGFR2 and for inhibiting tumor growth, tumor angiogenesis and/or inducing cancer cell cytotoxicity” (Academia Sinica, priority 2015, dated 2019)
